This data set addresses T1, His6-MBNL1 (human, UniProt Q9NR56-5 1-382).
T1 sequence: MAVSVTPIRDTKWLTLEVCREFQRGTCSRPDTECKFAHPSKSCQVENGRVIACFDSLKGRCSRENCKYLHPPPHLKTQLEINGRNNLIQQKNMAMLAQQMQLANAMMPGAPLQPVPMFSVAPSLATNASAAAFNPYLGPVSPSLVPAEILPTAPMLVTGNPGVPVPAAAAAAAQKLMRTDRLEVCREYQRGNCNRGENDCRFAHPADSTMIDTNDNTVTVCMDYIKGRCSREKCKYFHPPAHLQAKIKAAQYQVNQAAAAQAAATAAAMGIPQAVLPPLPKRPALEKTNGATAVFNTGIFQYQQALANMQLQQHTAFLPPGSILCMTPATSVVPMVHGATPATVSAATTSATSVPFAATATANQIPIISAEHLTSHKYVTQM
As to the kind of experiment: EMSA. In general terms: In EMSA bound probe runs differently from free probe, usually more slowly.

B1: DOWN (ssRNA)
RNA: GUAUGACUCACCUGUGCGACCCCUGGUGCCUGCUCCGCGCAGGGCCGGCGGCGUGCCAGGCAGAUGCCUCGGAGAACCCAGGGGUUUCUGUGGCUUUUUGCAUGCGGCGGGCAGCUGUGCUGGAGAGCAGAUGCUUCACCAAUUCAGAAAUCCAAUGCCUUCACUCUGAAAUGAAAUCUGGGCAU
As to B1, the binding result is “binds”.

For the origin of these results see paper PMC3074124.
